Laboratory results taken from patent publication US8685890 (Bicycle, dated 2014).
“And” between values parts separate entries of the source, which are not always exact repeats. Equal entries are not always repeated. Starred links: 1 amine or outer side, 2 acyl side, 3 side chain; linkers in the order of their positions; H or OH if unused. Positions of bridges follow the written chain, without caps; N, C: chain ends. No end group written: not given here. TBMB = c1c(C[*:1])cc(C[*:3])cc1C[*:2]

Key:
bovine serum albumin [1] = target: T1, bovine serum albumin (bovine, UniProt P02769 25-607); assay: fluorescence anisotropy, comparison of Kd
T1 construct: also called BSA

bovine serum albumin [2] = target: T1, bovine serum albumin; assay: fluorescence anisotropy titration of BSA into peptide
bovine serum albumin [3] = target: T1, bovine serum albumin; assay: fluorescence anisotropy titration of BSA into 0.4 µM peptide
bovine serum albumin [4] = target: T1, bovine serum albumin; assay: fluorescence anisotropy titration of BSA into 200 nM peptide
[5] = target: T2, Mdm2 (construct limits not stated) (UniProt Q00987 2-125, limits assumed); assay: fluorescence anisotropy titration of 18.8 µM Mdm2 into 500 nM peptide; data could not be fitted
bovine serum albumin [6] = target: T1, bovine serum albumin; assay: fluorescence anisotropy titration of BSA into 500 nM peptide
kallikrein = kallikrein (UniProt P03952 20-638, limits assumed); assay: cell-based or functional assay
MDM2 (res 2-125) [7] = target: T3, MDM2 (res 2-125) (UniProt Q00987 2-125); assay: fluorescence anisotropy titration, intrinsic Trp fluorescence, PBS 5 mM DTT, 23 C
T3 construct: range 2-125

MDM2 (res 2-125) [8] = target: T3, MDM2 (res 2-125); assay: fluorescence anisotropy (Example 1, retold as a range); upper end of range retold from Example 1
MDM2 (res 2-125) [9] = target: T3, MDM2 (res 2-125); assay: fluorescence anisotropy titration, λex=280 nm; λex=280 nm
MDM2 (res 2-125) [10] = target: T3, MDM2 (res 2-125); assay: fluorescence anisotropy (Example 1, retold as a range); lower end of range retold from Example 1
MDM2 (res 2-125) [11] = target: T3, MDM2 (res 2-125); assay: fluorescence anisotropy titration, λex=295 nm
MDM2 (res 2-125) [12] = target: T3, MDM2 (res 2-125); assay: as described in Example 1 (method not retold)
MDM2 (res 2-125) [13] = target: T3, MDM2 (res 2-125); assay: fluorescence anisotropy titration, MDM2 (res 2-125) titrated into the peptide, quadratic 1:1 fit with linear drift term; unit from the axis uM Mdm2
[14] = target: T2, Mdm2 (construct limits not stated at …); assay: method not given; affinity-matured Pep48T, estimated
MDM2 (res 2-125) [15] = target: T3, MDM2 (res 2-125); assay: fluorescence anisotropy titration, MDM2 (res 2-125) titrated into the peptide, quadratic 1:1 fit with linear drift term; unit from the axis MDM2, uM
[16] = target: T2, Mdm2 (construct limits not stated at …); assay: fluorescence anisotropy (FIG. 3); PK15L1-PEP48L1 bicycle (FIG. 3)

T2 sequence (Q00987 2-125 limits assumed): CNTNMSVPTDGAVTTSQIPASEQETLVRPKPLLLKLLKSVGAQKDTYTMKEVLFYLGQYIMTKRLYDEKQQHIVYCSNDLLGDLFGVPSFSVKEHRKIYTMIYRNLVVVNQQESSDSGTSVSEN
T3 sequence (Q00987 2-125 limits assumed): as above
Chain of kallikrein (P03952 20-638 limits assumed): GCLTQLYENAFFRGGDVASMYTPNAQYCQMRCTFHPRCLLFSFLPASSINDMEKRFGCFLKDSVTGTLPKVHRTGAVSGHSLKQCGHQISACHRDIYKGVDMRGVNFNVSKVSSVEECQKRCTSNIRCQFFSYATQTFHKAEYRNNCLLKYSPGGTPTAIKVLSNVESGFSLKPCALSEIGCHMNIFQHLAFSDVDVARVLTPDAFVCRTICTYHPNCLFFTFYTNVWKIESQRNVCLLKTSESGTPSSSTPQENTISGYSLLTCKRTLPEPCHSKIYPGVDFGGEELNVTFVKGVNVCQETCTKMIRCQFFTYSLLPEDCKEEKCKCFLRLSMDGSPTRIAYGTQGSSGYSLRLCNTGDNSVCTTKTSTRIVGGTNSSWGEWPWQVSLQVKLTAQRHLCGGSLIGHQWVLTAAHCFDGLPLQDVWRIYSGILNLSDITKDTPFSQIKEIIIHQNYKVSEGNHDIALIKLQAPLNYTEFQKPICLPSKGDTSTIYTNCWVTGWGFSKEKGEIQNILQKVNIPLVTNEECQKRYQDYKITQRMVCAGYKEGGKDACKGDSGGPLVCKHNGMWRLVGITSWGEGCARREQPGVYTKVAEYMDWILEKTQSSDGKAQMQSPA
T1 sequence (P02769 25-607 limits assumed): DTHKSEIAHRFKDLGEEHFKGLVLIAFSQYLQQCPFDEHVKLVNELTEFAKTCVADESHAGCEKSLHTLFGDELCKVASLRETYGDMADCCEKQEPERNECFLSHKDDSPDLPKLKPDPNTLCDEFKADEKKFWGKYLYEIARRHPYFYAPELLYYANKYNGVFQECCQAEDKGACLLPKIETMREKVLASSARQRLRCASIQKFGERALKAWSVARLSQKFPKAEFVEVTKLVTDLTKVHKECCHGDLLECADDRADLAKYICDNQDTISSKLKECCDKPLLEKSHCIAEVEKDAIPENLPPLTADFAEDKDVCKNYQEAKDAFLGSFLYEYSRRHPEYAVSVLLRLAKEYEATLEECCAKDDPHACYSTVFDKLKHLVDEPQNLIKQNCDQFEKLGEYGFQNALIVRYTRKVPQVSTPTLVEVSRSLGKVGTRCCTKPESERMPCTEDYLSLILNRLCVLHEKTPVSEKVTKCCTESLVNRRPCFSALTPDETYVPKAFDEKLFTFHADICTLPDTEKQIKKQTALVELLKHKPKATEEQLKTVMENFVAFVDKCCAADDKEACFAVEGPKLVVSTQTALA

B1: Fmoc-FGSGD-NH2 (peptide)
peptide: FGSGD
HELM: PEPTIDE1{[O=C(OCC1c2ccccc2-c2ccccc21)[*:2]].F.G.S.G.D.[am]}$$$$V2.0
SMILES: NC(=O)[C@H](CC(=O)O)NC(=O)CNC(=O)[C@H](CO)NC(=O)CNC(=O)[C@H](Cc1ccccc1)NC(=O)OCC1c2ccccc2-c2ccccc21
fold tighter than the glycine variant (Fmoc-GGSGD-NH2) (bovine serum albumin [1]): 8 fold | Kd (bovine serum albumin [2]): 160 nM

B2: Fmoc-WGSGD-NH2 (peptide)
peptide: WGSGD
HELM: PEPTIDE1{[O=C(OCC1c2ccccc2-c2ccccc21)[*:2]].W.G.S.G.D.[am]}$$$$V2.0
SMILES: NC(=O)[C@H](CC(=O)O)NC(=O)CNC(=O)[C@H](CO)NC(=O)CNC(=O)[C@H](Cc1c[nH]c2ccccc12)NC(=O)OCC1c2ccccc2-c2ccccc21
notes: also called Fmoc-Trp-GSGD
fold tighter than Fmoc-FGSGD-NH2 (bovine serum albumin [1]): 3 fold | Kd (bovine serum albumin [3]): ~60 nM

B3: Fmoc-GGSGD-NH2 (peptide)
peptide: GGSGD
HELM: PEPTIDE1{[O=C(OCC1c2ccccc2-c2ccccc21)[*:2]].G.G.S.G.D.[am]}$$$$V2.0
SMILES: NC(=O)[C@H](CC(=O)O)NC(=O)CNC(=O)[C@H](CO)NC(=O)CNC(=O)CNC(=O)OCC1c2ccccc2-c2ccccc21
notes: also called the glycine variant
Kd (bovine serum albumin [4]): 1300 nM

B4: Fmoc-FGGGD-NH2 (peptide)
peptide: FGGGD
HELM: PEPTIDE1{[O=C(OCC1c2ccccc2-c2ccccc21)[*:2]].F.G.G.G.D.[am]}$$$$V2.0
SMILES: NC(=O)[C@H](CC(=O)O)NC(=O)CNC(=O)CNC(=O)CNC(=O)[C@H](Cc1ccccc1)NC(=O)OCC1c2ccccc2-c2ccccc21
Kd (bovine serum albumin [2]): 200 nM

B5: bicyclic Fmoc-WGGGA-PEP48L1-PK15L1 (peptide)
peptide: WGGGACVRFGWTCSDRFRNCG
HELM: PEPTIDE1{[O=C(OCC1c2ccccc2-c2ccccc21)[*:2]].W.G.G.G.A.C.V.R.F.G.W.T.C.S.D.R.F.R.N.C.G.[am]}|CHEM1{[c1c(C[*:1])cc(C[*:3])cc1C[*:2]]}$PEPTIDE1,CHEM1,7:R3-1:R1|PEPTIDE1,CHEM1,14:R3-1:R2|PEPTIDE1,CHEM1,21:R3-1:R3$$$V2.0
SMILES: CC(C)[C@@H]1NC(=O)[C@@H](NC(=O)[C@H](C)NC(=O)CNC(=O)CNC(=O)CNC(=O)[C@H](Cc2c[nH]c3ccccc23)NC(=O)OCC2c3ccccc3-c3ccccc32)CSCc2cc3cc(c2)CSC[C@H](NC(=O)[C@H]([C@@H](C)O)NC(=O)[C@H](Cc2c[nH]c4ccccc24)NC(=O)CNC(=O)[C@H](Cc2ccccc2)NC(=O)[C@H](CCCNC(=N)N)NC1=O)C(=O)N[C@@H](CO)C(=O)N[C@@H](CC(=O)O)C(=O)N[C@@H](CCCNC(=N)N)C(=O)N[C@@H](Cc1ccccc1)C(=O)N[C@@H](CCCNC(=N)N)C(=O)N[C@@H](CC(N)=O)C(=O)N[C@H](C(=O)NCC(N)=O)CSC3
notes: also called Fmoc PEP48L1-PK15L1 bicyclic; FmocPEP48L1-PK15L1
Kd [5]: < 1000 nM | Kd (bovine serum albumin [6]): 62 nM | IC50 for inhibition of kallikrein activity (kallikrein): 17 µM

B6: PK15L1-CG4L1 bicyclic (peptide)
peptide: ACSDRFRNCIFDLGFCG
HELM: PEPTIDE1{A.C.S.D.R.F.R.N.C.I.F.D.L.G.F.C.G}|CHEM1{[c1c(C[*:1])cc(C[*:3])cc1C[*:2]]}$PEPTIDE1,CHEM1,2:R3-1:R1|PEPTIDE1,CHEM1,9:R3-1:R2|PEPTIDE1,CHEM1,16:R3-1:R3$$$V2.0
SMILES: CC[C@H](C)[C@@H]1NC(=O)[C@@H]2CSCc3cc(cc(c3)CSC[C@@H](C(=O)NCC(=O)O)NC(=O)[C@H](Cc3ccccc3)NC(=O)CNC(=O)[C@H](CC(C)C)NC(=O)[C@H](CC(=O)O)NC(=O)[C@H](Cc3ccccc3)NC1=O)CSC[C@H](NC(=O)[C@H](C)N)C(=O)N[C@@H](CO)C(=O)N[C@@H](CC(=O)O)C(=O)N[C@@H](CCCNC(=N)N)C(=O)N[C@@H](Cc1ccccc1)C(=O)N[C@@H](CCCNC(=N)N)C(=O)N[C@@H](CC(N)=O)C(=O)N2
IC50 for inhibition of kallikrein activity (kallikrein): 0.2 µM

B7: CG4L1-PK15L1-PK15L2 tricyclic (peptide)
peptide: ALCIFDLGFCSDRFRNCPADE
HELM: PEPTIDE1{A.L.C.I.F.D.L.G.F.C.S.D.R.F.R.N.C.P.A.D.E}|CHEM1{[c1c(C[*:1])cc(C[*:3])cc1C[*:2]]}$PEPTIDE1,CHEM1,3:R3-1:R1|PEPTIDE1,CHEM1,10:R3-1:R2|PEPTIDE1,CHEM1,17:R3-1:R3|PEPTIDE1,PEPTIDE1,1:R1-21:R2$$$V2.0
SMILES: CC[C@H](C)[C@@H]1NC(=O)[C@@H]2CSCc3cc4cc(c3)CSC[C@H](NC(=O)[C@H](CC(N)=O)NC(=O)[C@H](CCCNC(=N)N)NC(=O)[C@H](Cc3ccccc3)NC(=O)[C@H](CCCNC(=N)N)NC(=O)[C@H](CC(=O)O)NC(=O)[C@H](CO)NC(=O)[C@H](CSC4)NC(=O)[C@H](Cc3ccccc3)NC(=O)CNC(=O)[C@H](CC(C)C)NC(=O)[C@H](CC(=O)O)NC(=O)[C@H](Cc3ccccc3)NC1=O)C(=O)N1CCC[C@H]1C(=O)N[C@@H](C)C(=O)N[C@@H](CC(=O)O)C(=O)N[C@@H](CCC(=O)O)C(=O)N[C@@H](C)C(=O)N[C@@H](CC(C)C)C(=O)N2
IC50 for inhibition of kallikrein activity (kallikrein): 15 µM

B8: PEP48 bicyclic peptide (synthetic peptide of phage clone 48 conjugated to TBMB) (peptide)
peptide: H-SCVRFGWTCDNSWHGCKG-OH
modifications: linker 2-9-16 via TBMB
notes: measured in PBS with 5 mM DTT; also called peptide 48; PEP48L1-PEP48L2 bicyclic peptide
Kd (MDM2 (res 2-125) [7]): 250 to 750 nM | Kd (MDM2 (res 2-125) [8]): ≤ 800 nM | Kd (MDM2 (res 2-125) [9]): 760 nM | Kd (MDM2 (res 2-125) [10]): ≥ 500 nM | Kd (MDM2 (res 2-125) [11]): 567 nM | Kd (MDM2 (res 2-125) [12]): ~660 nM | Kd (MDM2 (res 2-125) [13]): 760 nM and 568 nM

SGCVRFGWTCPTVMCGG (linker 3-10-15 via TBMB; not fully specified (N-terminus, C-terminus)) [Pep48T (affinity-matured Pep48 derivative, TBMB conjugate)]
Kd [14]: ~100 nM

B9: PK15L1-PEP48L1 bicyclic (peptide)
peptide: ACSDRFRNCVRFGWTCG
modifications: linker 2-9-16 via TBMB
notes: also called PK15L1-PEP48L1 bicyclic peptide; dual specific peptide comprising loops from PEP48 and PK15
Kd (MDM2 (res 2-125) [15]): 1560 nM | Kd [16]: 1550 nM | IC50 for inhibition of kallikrein activity (kallikrein): 11 µM

ACSDRFRNCPADEALCG (linker 2-9-16 via TBMB) [PK15L1-PK15L2 bicyclic]
IC50 for inhibition of kallikrein activity (kallikrein): 0.013 µM

B10: PEP10 bicyclic peptide (synthetic peptide of phage clone 10 conjugated to TBMB) (peptide)
peptide: H-SCELWNPKCRLSPFECKG-OH
modifications: linker 2-9-16 via TBMB
notes: measured in PBS with 5 mM DTT; also called peptide 10
Kd (MDM2 (res 2-125) [7]): 250 to 750 nM | Kd (MDM2 (res 2-125) [11]): 267 nM | Kd (MDM2 (res 2-125) [13]): 268 nM

H-ALCIFDLGFCSDRFRNCPADE-OH (linker 3-10-17 via TBMB) [X-CG4L1-PK15L1-Y bicyclic]
IC50 for inhibition of kallikrein activity (kallikrein): 15 µM
